These results are taken from patent publication US20260062464A1.

For test [1], the target named is recombinant N2 neuraminidase of A/Wisconsin/67/2005 (H3N2) (Influenza A virus A/Wisconsin/67/2005 (H3N2)). As to the kind of experiment: BLI, NA on biosensor, Fab in solution, 1:1 fit. Background: BLI is a label-free optical method that tracks binding on a fibre tip over time.
Test [2] has as its target recombinant N2 neuraminidase of A/Moscow/10/1999 (H3N2) (Influenza A virus A/Moscow/10/1999 (H3N2)). As to the kind of experiment: BLI, NA on biosensor, Fab in solution, 1:1 fit.
Test [3] deals with recombinant N2 neuraminidase of A/Wisconsin/67/2005 (H3N2) (Influenza A virus A/Wisconsin/67/2005 (H3N2)). As to the kind of experiment: ELISA on plate-coated recombinant NA, absorbance 450 nm. For orientation: ELISA stands for enzyme-linked immunosorbent assay.

B1: Fab of NDS.1 (Fab, V domains shown)
VH: QVQLRQWGAGLLKPSETLSLTCDVYGGSFNFYFWTWIRQPPGKGLEWLGEITHSGSATYIPSLKSRVTLSVDTSKGQFSLKLTSVNVADTAVYYCAGLPIDYDTVHLGYYPMDVWGQGTPVTVSS
VL: DIQMTQSPSSLSASVGDRVTITCRASQGIRNYLAWYQQKPGKVPKLLIYGASTLQSGVPSRFSGSGSGTDFSLTISSLQPEDIATYFCQEYNNAPRTFGQGTKVEIK
For B1, in test [1], the dissociation constant Kd worked out at 75.6 nM, the dissociation rate constant (koff) was found to be 0.00431 s⁻¹ and the kon is 57000 M⁻¹ s⁻¹. Also, in test [2], the Kd amounted to 0.217 nM, the koff worked out at 1.16e-05 s⁻¹ and the kon came out at 53300 M⁻¹ s⁻¹.

B2: Fab of NDS.1.1 (Fab, V domains shown)
VH: QVQIQQWGAGLLKPSDTLSLTCSVYGGSFNFYYWTWVRQPPGKGLEWLAEINHSGSINYIPSLNSRVALSVDTSKGQFSLRLSSVTAADTAVYYCTGVPIDYESLHLGYYPMDVWGQGTPVIVSS
VL: DIQMTQSPSSLSASVGDRVTITCRASQGISNYLAWWQQKPGQVPKLLIYAASTLQSGVPSRFSGSGSGTDFSLTISSLQPDDVAIYYCQKYNSAPRTFGQGTKVEIK
Consider B2, for which, in test [1], the Kd was found to be 136 nM, the koff was 0.00565 s⁻¹ and the kon was 41500 M⁻¹ s⁻¹. In addition, in test [2], the Kd is 8.31 nM, the koff was found to be 0.000187 s⁻¹ and the kon was 22500 M⁻¹ s⁻¹.

B3: NDS.6 monoclonal antibody (antibody, V domains shown)
VH: QVQLVQSGPEVKKPGASVKVSCKASGYNFNRYGLTWVRQAPGQGLEWMGWISTYNSDTIYAREFRGRVTLTTDTSTRTAYMELRSLISADTAVYYCARDNVEEAFPISYYFDHWGQGTLVSVSS
VL: QSALTQPRSVSGSPGQSVTISCTGTSSDVGLYNYVSWYQHHPGKAPKFLIYDVTKRPSGVPDRFSGSKSGNTASLTISGLQAEDEADYYCCSYVGSYILVFGGGTKVTVL
Turning to B3, in test [3], the EC50 (read off the curve) was found to be 0.2 µg/mL.

B4: NDS.5 monoclonal antibody (antibody, V domains shown)
VH: QLRLQESGPGLVKPSETLSLTCTVSGGSITSSPYYWGWIRQPPGKGLEWIGSIYYSGSTYYNPSLRSRVTISLDTSMNQFSLKLSSVTAADTAVYYCAEEYYDFWRTQDWGQGTLVTVSS
VL: EIVLTQSPGTLSLSPGERATISCRASQSVSGRNLAWYQQKPGQAPRLLIYAASNRATGIPDRFSGSGSGTDFTLTISRLEPEDFAVYYCQQYGTSKTFGQGTKVEIK
With B4, the EC50 (read off the curve) in test [3] was determined as 0.05 µg/mL.

B5: Fab of NDS.3 (Fab, V domains shown)
VH: EVQLVESGGGLVKPGGSLRLSCAASGFTFSDYSMTWIRQIPGKGLEWLSYTTSSGRPIFYADSVKGRFTMSRDNAKMSVYLQMNSLRDADSAVYYCARGDPHYIWGTYLDSWGPGTLVTVSS
VL: QSALTQPPSASGSPGQSVTISCTGTTSDFGDHNYVSWYQQRPGEAPKLIIYDVSKRPSGVPDRFSGSKSGNTASLTVSRLQADDEANYYCSSIEGSNTLLFGGGTKLTVL
B5: in test [1], the Kd is 60.9 nM, the off-rate (koff) was determined as 0.00527 s⁻¹ and the kon was 86500 M⁻¹ s⁻¹. In addition, in test [2], the dissociation constant Kd turned out to be 18.9 nM, the koff came out at 0.000517 s⁻¹ and the kon came out at 27400 M⁻¹ s⁻¹.

One may read the Kd as the equilibrium constant for the complex coming apart. The term koff denotes the first-order rate constant of dissociation. What is called kon is a measure of how fast the partners come together. What is called EC50 (read off the curve) is the midpoint of the concentration-response curve.
